# In the supplement of paper PMC12636428:
# Test system: Saccharomyces cerevisiae
# Assay: transcriptional activation domain activity (GFP:mCherry ratio, weighted mean of sorted bins, harmonized to initial dataset scale) (arbitrary fluorescence ratio units); higher = stronger transcriptional activation
# Settings: beta-estradiol 1 µM; induction time 4 h
# In short: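 After a 1:5 dilution into SC with 1 uM beta-estradiol and 4 hours at 30 °C, yeast diploids carrying a GFP reporter and URA3-integrated barcoded tiles were sorted into 8 bins by GFP:mCherry ratio. The tiles were fused to an estradiol-inducible synthetic transcription factor. Barcodes were sequenced, tiles below 50 reads were discarded, and activation activity was taken as the read-weighted mean of bin median fluorescence, averaged across barcodes and linearly mapped onto the initial dataset scale.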
row,Sequence,transcriptional activation domain activity
1,RADADAAASGGHDRRRKRARSDASPSDGHASDASTARRERSSRRSSRSHPRHA,18500
2,MTNQPTTQDGPSPVKHRACDECRSRKLACSKEPDGCSRCKKEGIVCHYSAQKQ,28400
3,MCLLGDGRHPEFFIFYFLYHFFLLYLLFYPQAFSRYLFIWMGCLNCFYFRFGL,41000
4,MSNTYRFVMEEPAEAGKGQQKKRARLVTACDNCRNKKIKCLRTPVSGTCESCK,27900
5,MDDTERRTAKRSRFDQTEPEPKPRASRFDRRSRSPPARKPESRRSRSPIARPS,17000
6,LQILRVVLHLLIFDLHSSSSLTFPLPFPLALPFFIYPLNFLFLFWSFMCTFMY,84800
7,PAPAAERREFEEELEARAPGGRGGFRGPRGGPRGPAPAPAPPAAERREFIEDL,28600
8,PSEKPANGAKGKGGKPRGKSGEKDNGAAEFGADPKNADKKSSNESSGAKSRPK,37900
9,RDAKERGEGKRKREERDSRRSERGEEDGKRRRESSADRDPDRKRSRRRRKDRD,40900
10,KKNRHGKFAYSDRYNLSEYIIEQLSEYDDIDLVKPWHRKLMLLHPFVILWVFF,60600
11,AVKKEPTPEEDEEEEEEEPAPKPKARGGRKAKASAAVDADAAQAKPKRGRAKK,30300
12,GFSVDPIVSLLYRAFTMMDVTFLRTVCFDIFSRYSTAELALVNQAFTAKHKKK,40700
13,KKKSSRKRDEEDKERSLRKHSRHHKSRRKRSRERSESPESSRHRHRHKKSSSS,17600
14,ASVERCHRNIVPNGCAVFQAGGLVVVLVEVSRKSYLASLVPVIVNAILNEHQI,43500
15,MCCLVLSLALLGRHGGMNIFFLCFYVGSFVFIFLRVLVVRLLLLLLLCYYQAL,70200
16,MRVGVGGLLWLLCGSPFFFLHFISFVFLFFWSLLFFLFCRALHTPFSSYYNYH,72000
17,MSAVCMFLRNRALFIHIFSVALTLFHVGAFQLLHCNCAYGFLVWGFLGCSLSL,78500
18,LVVKVLNNTAFSPFFTFFIPVLYWSQNQSWSAPTVFWSTAWFLLVCIFSLLKL,20900
19,EITNDESVEAHKEEQAVEAKEGSPEIAAEAEAEEGGAKPAEESKKPRKLIEEE,12500

row,Sequence,transcriptional activation domain activity
1,MQVISYIFFCHVKYLFFVYSLHVVSNTNLSSYMLFNWLYLILLRLFVYIIYFI,71300
2,MQQLFTFGSLFFPSFHPFFFFFFFFCHPSFLFFFLPSFLPFFLFFFLPSFLPF,58000
3,GSKMLTEFKKKLRLDYFMLLDLRLWKDMRMCLRKLFISTLIANLSYKRILGLR,61700
4,KKEKAEKNKQQSKGQGQGEGDKEQKKEGEGEGEGGKDARAKGEKDGKDEKGAK,46400
5,EEEAELAKPAKRPRESDATERDASTGDEVSKKKSKKLKAENGAPVAAPAGTSG,39300
6,SKHRRRHRSSSRERHRHRERDGEPSSSRHRSRRDRSRSKDRSKKEESHRSHRS,24500
7,KLKEKNKKRKRGEEVSDDEEEGPKDDEPKEKKAKKEEEHGVWVGNLAFATSQD,36700
8,MYSRIFIGLSFFLISFFISIIFLFICKEHSFSPIGFFLTRFLLFHVFSLFFTF,62800
9,ASSYAVQHTRKKGRGGGGGEAGNKPANKAARSWDKNAELHGTQGKMHVTIAVT,85900
10,VGLFGMGQKRISALIGVLFAFTLGCVLILRWRLPWYRNLIQTLLYHLFVIYLH,52600
11,ALDDKGNRDAFYSVLVNLMSKLCWAIVQYLESNSLRATYVIEARISEYTKFSI,42500
12,AFLLFLLYLTFFCWVCFATSATWVWSEILSDNQYTESFMPINDVLLAVLSGII,53100
13,MCACRLFNQICFINKPCRIVNLSISIVYINWGMLLCVMRSDVLSLYLLIMLPV,80000
14,HVDSYLRYLISHCKGRISSRGLVTARFLERRMRHLVWLLKVECVKWEYSPYTR,79400
15,DLVFGIIIVRSLLIPVVLVFFFTFACFHIYLSHTSFFPAFYSSILGFHPLAFS,73300
16,PNGLMDPVLSTTNVSATSSNDNSANNSISSPEYTFGQFSMDSPHRTDATNTPI,23000
17,LILRMQVATLTKLWGLPPEFEIVCRDIWALHLSLLPDPPPPEPYYFHERGDGM,34400
18,STHRIRCRNAEEPGGRARCRLVVGRRAPAGARDEVPSHFSEEELVASVVGVVV,73000
